What was measured:
[1] = molecular target: T1, human Trop-2 (human, UniProt P09758 27-323); experiment: cell binding assay on Trop-2-expressing cells (cell line not stated)
T1 construct: whole, on cells; Type-I transmembrane glycoprotein; also called EGP-1; epithelial glycoprotein-1
T1 sequence (looked up): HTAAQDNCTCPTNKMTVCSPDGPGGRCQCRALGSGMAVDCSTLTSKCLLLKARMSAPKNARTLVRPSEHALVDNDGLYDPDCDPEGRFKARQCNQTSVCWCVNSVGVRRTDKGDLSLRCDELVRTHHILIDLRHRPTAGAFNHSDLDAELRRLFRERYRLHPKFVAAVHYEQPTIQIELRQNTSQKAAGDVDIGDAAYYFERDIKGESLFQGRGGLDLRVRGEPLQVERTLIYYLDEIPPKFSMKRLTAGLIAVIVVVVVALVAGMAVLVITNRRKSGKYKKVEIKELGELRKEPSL

[2] = molecular target: T1, human Trop-2; experiment: cell binding on NCI-N87 cells, anti-mouse-HRP secondary, luminescence, 0.03 to 66 nM, 4 C

**Q.** For hRS7-CL2-SN-38 (antibody), which Kd [1] is on record?
**A.** 1.2 nM

**Q.** With hRS7-CL2A-SN-38 (antibody) as the molecule, how does the Kd [1] read?
**A.** 1.2 nM

B1: murine RS7 (antibody, V domains shown)
VH: VKLQESGPELKKPGETVKISCKASGYTFTNYGMNWVKQAPGKGLKWMGWINTYTGEPTYTDDFKGRFAFSLETSATTAYLQINNLKSEDMATYFCARGGFGSSYWYFDVWGQGTTVTVSS
VL: DIQLTQSHKFMSTSVGDRVSITCKASQDVSIAVAWYQQKPGQSPKLLIYSASYRYTGVPDRFTGSGSGTDFTFTISSVQAEDLAVYYCQQHYITPLTFGAGTKLELK
**Q.** For B1, which Kd [2] is on record?
**A.** 0.57 nM
